Reference: PMC3320862, “Structural and Functional Analysis of the Symmetrical Type I Restriction Endonuclease R.EcoR124INT” (PLOS One, 2012)

Columns and labels:
[1] = biological target: T1, M.EcoR124INT methyltransferase (UniProt P10484 1-520; P10485 1-215); test: native gel or EMSA; purified HsdR mixed with MTase at 1:1 and 2:1 molar ratios, then with a 30 bp DNA duplex with the recognition sequence (1:1 enzyme:DNA); 2 uM MTase and DNA, 2 or 4 uM HsdR; 6% non-denaturing polyacrylamide gel, 150 V, 2.5 h, 0.25x TBE; no difference with 10 mM MgCl2; details: both partners purified
T1 construct: HsdM (modification subunit, M) of the Type I restriction-modification system EcoR124I; SNT: residues 1-215 of the parent specificity subunit HsdS (S) of EcoR124I, holding the N-terminal target recognition domain and the central conserved region; Complex formed beforehand (M and SNT), to which HsdR was added; M2 stoichiometry is printed for Type I MTases in general (M2S); 'two modified SNT …
T1 sequence (looked up) 1: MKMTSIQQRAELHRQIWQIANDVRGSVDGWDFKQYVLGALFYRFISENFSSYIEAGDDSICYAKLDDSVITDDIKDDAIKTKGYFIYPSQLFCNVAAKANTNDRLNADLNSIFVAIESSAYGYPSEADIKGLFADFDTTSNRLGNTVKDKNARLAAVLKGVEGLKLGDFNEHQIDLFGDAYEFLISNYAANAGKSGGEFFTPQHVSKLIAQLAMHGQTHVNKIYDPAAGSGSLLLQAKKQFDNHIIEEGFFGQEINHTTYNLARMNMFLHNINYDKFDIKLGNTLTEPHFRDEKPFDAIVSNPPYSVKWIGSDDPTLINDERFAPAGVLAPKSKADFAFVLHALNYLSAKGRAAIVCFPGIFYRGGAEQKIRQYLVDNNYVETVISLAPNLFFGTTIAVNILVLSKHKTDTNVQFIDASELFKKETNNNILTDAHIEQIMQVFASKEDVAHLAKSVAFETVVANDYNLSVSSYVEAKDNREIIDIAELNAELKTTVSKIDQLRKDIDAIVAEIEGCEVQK
T1 sequence (looked up) 2: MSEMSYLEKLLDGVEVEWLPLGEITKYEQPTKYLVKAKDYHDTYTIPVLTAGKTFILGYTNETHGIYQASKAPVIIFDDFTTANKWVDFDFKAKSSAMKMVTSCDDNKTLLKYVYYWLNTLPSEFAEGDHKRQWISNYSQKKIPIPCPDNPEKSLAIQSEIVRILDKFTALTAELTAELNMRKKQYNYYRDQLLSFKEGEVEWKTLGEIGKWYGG

[2] = biological target: T1, M.EcoR124INT methyltransferase; test: small-angle neutron scattering; ENase formed at 2:1 molar ratio HsdR:MTase, ca. 3 uM, buffer A; fully protonated complex in H2O, and complex with deuterated HsdR and protonated MTase in 40% D2O (MTase matched out); details: both partners purified

B1: HsdR from EcoR124I (enzyme, UniProt P10486 1-1038, looked up)
chain: MTHQTHTIAESNNFIVLDKYIKAEPTGDSYQSESDLERELIQDLRNQGYEFISVKSQSAMLANVREQLQNLNGVVFNDSEWRRFTEQYLDNPSDGILDKTRKIHIDYICDFIFDDERLENIYLIDKKNLMRNKVQIIQQFEQAGSHANRYDVTILVNGLPLVQIELKKRGVAIREAFNQIHRYSKESFNSENSLFKYLQLFVISNGTDTRYFANTTKRDKNSFDFTMNWAKSDNTLIKDLKDFTATCFQKHTLLNVLVNYSVFDSSQTLLVMRPYQIAATERILWKIKSSFTAKNWSKPESGGYIWHTTGSGKTLTSFKAARLATELDFIDKVFFVVDRKDLDYQTMKEYQRFSPDSVNGSENTAGLKRNLDKDDNKIIVTTIQKLNNLMKAESDLPVYNQQVVFIFDECHRSQFGEAQKNLKKKFKRYYQFGFTGTPIFPENALGSETTASVFGRELHSYVITDAIRDEKVLKFKVDYNDVRPQFKSLETETDEKKLSAAENQQAFLHPMRIQEITQYILNNFRQKTHRTFPGSKGFNAMLAVSSVDAAKAYYATFKRLQEEAANKSATYKPLRIATIFSFAANEEQNAIGEISDETFDTSAMDSSAKEFLDAAIREYNSHFKTNFSTDSNGFQNYYRDLAQRVKNQDIDLLIVVGMFLTGFDAPTLNTLFVDKNLRYHGLMQAFSRTNRIYDATKTFGNIVTFRDLERSTIDAITLFGDKNTKNVVLEKSYTEYMEGFTDAATGEAKRGFMTVVSELEQRFPDPTSIESEKEKKDFVKLFGEYLRAENILQNYDEFATLKALQQIDLSDPVAVEKFKAEHYVDDEKFAELQTIRLPADRKIQDYRSAYNDIRDWQRREKEAEKKEKSTTDWDDVVFEVDLLKSQEINLDYILGLIFEHNRQNKGKGEMIEEVKRLIRSSLGNRAKEGLVVDFIQQTNLDDLPDKASIIDAFFTFAQREQQREAEALIKEENLNEDAAKRYIRTSLKREYATENGTELNETLPKLSPLNPQYKTKKQAVFQKIVSFIEKFKGVGGKI
notes: HsdR (restriction / motor subunit) of the Type I restriction-modification system EcoR124I; about 120 kDa as printed; For one SANS sample the same protein was made about 75% deuterated (85% D2O minimal medium); also called R subunit; motor subunit; source: expressed and purified as described previously [24]; deuterated form from BL21 (DE3) with the expression plasmid pBGSR124
B1 was tested, and the “stoichiometry N” value [1] was 2 HsdR per MTase and the “stoichiometry N” value [2] was 2 HsdR per complex.
